The text below walks through data of JP2021155343A (dated 2021).

For the assay, the target named is T1, ヒトeIF5Aタンパクの(44−72番目)のアミノ酸残基から成るペプチド (human, UniProt P63241 44-72).
T1 construct: range 44-72; The peptide was coupled to KLH for immunisation; also called human eIF5A (44-72) peptide
In words: ELISA screening of hybridoma monoclonal antibodies. For orientation: ELISA stands for enzyme-linked immunosorbent assay.

T1 sequence (P63241 44-72 limits assumed): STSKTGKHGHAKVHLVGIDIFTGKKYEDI

B1: 抗ORAIP抗体(クローン YSP5−45−36) (antibody, V domains shown)
VH: EVKLVESGGGLVQPGGSLRLSCATSGFTFTDYYMSWARQPPGKALEWLGFIRNKANGYTTEYSASVKGRFTISRDNSLGILYLQMNTLRPEDSATYYCARNYYGTSFSWFAYWGQGTLVTVSA
VL: MTQTPLSLSVSLGDQASISCRSSQSIVHFNGNTYLEWYLQKPGQSPKLLIYKVSSRFSGVPDRFSGSGSGTDFTLKISRVEAEDLGVYYCFQGSHVPPTFGGGTKLEIK
notes: Mouse monoclonal antibody from a hybridoma (mouse spleen cells fused with mouse myeloma cells); also called モノクローナル抗体(クローン YSP5−45−36); clone YSP5-45-36
For B1, the binding result was “binds”.
